The text below walks through data of patent publication US20190309078A1 (Hoffmann-La Roche, published 2019).

This assay concerns the target human CSF-1R fragment D1-D3 (human, UniProt P07333 20-311). Description: SPR. The protocol: The binding of […] anti-CSF-1R antibodies to human CSF-1R fragment D1-D3 (SEQ ID NO:13) was measured as described in Example 10 of WO2011/070024.
(Surface plasmon resonance follows binding to a sensor surface in real time, without labels.)

B1: emactuzumab (antibody, V domains shown)
VH: QVQLVQSGAEVKKPGASVKVSCKASGYTFTSYDISWVRQAPGQGLEWMGVIWTDGGTNYAQKLQGRVTMTTDTSTSTAYMELRSLRSDDTAVYYCARDQRLYFDVWGQGTTVTVSS
VL: DIQMTQSPSSLSASVGDRVTITCRASEDVNTYVSWYQQKPGKAPKLLIYAASNRYTGVPSRFSGSGSGTDFTLTISSLQPEDFATYYCQQSFSYPTFGQGTKLEIK
notes: also called anti-CSF-1R antibody emactuzumab; <CSF-1R> MAb
Consider B1, for which the binding result was “no binding”.
